Read-outs that look alike come from different tables or passages of the source.
Experiments:
[1] = tested on: purified recombinant human LOXL2; test: Amplex Red assay of LOXL2 enzymatic activity; assay type: biochemical
Procedure: A mouse anti-human LOXL2 antibody (AB0023) was obtained by immunization with full-length LOXL2 protein and purified by SEC-HPLC (Tosoh TSKGEL G3000SWXL 7.8×300). Analytical size exclusion chromatography was used to assess antibody stability and purity. Purified AB0023 was run on SDS-PAGE Coomassie (Invitrogen BT 4-12% Gels) reducing and non-reducing gels to assess purity. Potency was examined by ELISA to determine Kd, and effect on LOXL2 enzymatic activity was determined using an Amplex Red Assay (Molecular Probes/Invitrogen, Carlsbad, Calif.). Antibody concentration was measured by absorbance at 280 nm using an Extinction Coefficient Abs 0.1% of 1.4. Identity was assayed by isoelectric focusing (Invitrogen pH 3-10 IEF Gels). For safety analysis, endotoxin levels were measured at a sensitivity range of 0.01-1 EU/ml (Charles River EndoSafe PTS).

[2] = tested on: human umbilical vein endothelial cells (HUVEC); test: In vitro HUVEC tube formation assay; assay type: cell-based; conditions: for IC50: CD31 staining, day 11
Procedure: Human umbilical vein endothelial cells (HUVECs) were plated on a feeder layer of fibroblasts and cultured in 24-well plates in Lonza EBM-2 medium (a basal medium developed for normal human endothelial cells in a low-serum environment) supplemented with hEGF, Hydrocortisone, GA-1000 (Gentamicin, Amphotericin-B), FBS (Fetal Bovine Serum) 10 ml (2% final), VEGF, hFGF-B, R3-IGF-1, Ascorbic Acid and heparin. […] At this point (day 1), 0.5 ml of fresh endothelial cell growth medium containing no additions (control), anti-LOXL2 antibody AB0023, or suramin was added to the wells. The plate was then cultured at 37° C. and 5% CO2. On days 4, 7 and 9 the medium was removed from all wells and carefully replaced with 0.5 ml of fresh medium containing the additions listed above. On day 11, the plates were fixed and tubules were assayed for CD31 expression as follows. Wells were washed with 1 ml PBS and fixed with 1 ml ice cold 70% ethanol for 30 minutes at room temperature. Cells were then incubated, for 60 minutes at 37° C., with 0.5 ml mouse anti-human CD31 antibody diluted 1:400 in PBS containing 1% BSA. Wells were then washed three times with 1 ml PBS, followed by incubation for 60 minutes at 37° C. with 0.5 ml alkaline phosphatase-conjugated goat anti-mouse IgG secondary antibody diluted 1:500 in PBS containing 1% BSA. Wells were washed a further three times with 1 ml PBS prior to incubation for 10 minutes at 37° C. with 0.5 ml freshly prepared and filtered BCIP/NBT substrate. Wells were then carefully washed three times with 1 ml distilled water and left to air dry overnight.
Digital images of each well were taken using a Nikon Coolpix camera on a Leica inverted microscope at 10× magnification. Four random fields per well were imaged, producing 96 images in total. Images were then converted to BMP files and imported into an image analysis package to measure number of vessel branches, number of vessels and total vessel length. […]

[3] = tested on: fibroblasts or tumor cell lines; test: Short-term growth factor signaling (TGFb, PDGF-BB) with or without AB0023; assay type: cell-based
MCF7 cells = test: Induction of EMT-like phenotype by LOXL2-containing conditioned media (rhodamine-phalloidin staining); assay type: cell-based; conditions: MDA-MB231 or Hs-578t conditioned media; BAPN up to 2 mM
Procedure: Cells were seeded at 80% confluency, in an 8-chambered slide, 24 hours prior to the day of staining. After 24 hours, media was aspirated and the chambers were washed with PBS. Cells were then fixed with 4% Parafomaldehyde (PFA) for 20 minutes at room temperature and then permeabilized with 0.5% Saponin (JT Baker, Phillipsburg, N.J.) for 5 minutes at room temperature. Cells were then stained for 15 minutes at room temperature with a 1:100 dilution of rhodamine phalloidin (Invitrogen, Carlsbad, Calif.). Slides were mounted with Vectashield (Vector Laboratories, Burlingame, Calif.).
MCF7 or SW620 cells were seeded at 50,000 cells per well of an 8-chambered culture slide in HGDMEM (high-glucose Dulbecco's modified Eagle's medium containing 4.5 g/l glucose)+10% FBS, 2 mM L-glutamine, 24 hours prior to being exposed to conditioned medium (CM). 500 uls of fresh conditioned medium from MDA MB 231 cells was added to the chambers containing MCF7 cells. The cells were incubated with the CM for 48-96 hours. Conditioned medium from MCF7 or SW620 cells was used as a negative control. After 48-96 hours incubation with CM, the cells were stained with rhodamine-phalloidin as described above.

[4] = Repeat-dose tolerability in mice; conditions: 50 mg/kg twice per week for 14 weeks

purified recombinant human LOXL2, sequence (Q9Y4K0 318-774 limits assumed): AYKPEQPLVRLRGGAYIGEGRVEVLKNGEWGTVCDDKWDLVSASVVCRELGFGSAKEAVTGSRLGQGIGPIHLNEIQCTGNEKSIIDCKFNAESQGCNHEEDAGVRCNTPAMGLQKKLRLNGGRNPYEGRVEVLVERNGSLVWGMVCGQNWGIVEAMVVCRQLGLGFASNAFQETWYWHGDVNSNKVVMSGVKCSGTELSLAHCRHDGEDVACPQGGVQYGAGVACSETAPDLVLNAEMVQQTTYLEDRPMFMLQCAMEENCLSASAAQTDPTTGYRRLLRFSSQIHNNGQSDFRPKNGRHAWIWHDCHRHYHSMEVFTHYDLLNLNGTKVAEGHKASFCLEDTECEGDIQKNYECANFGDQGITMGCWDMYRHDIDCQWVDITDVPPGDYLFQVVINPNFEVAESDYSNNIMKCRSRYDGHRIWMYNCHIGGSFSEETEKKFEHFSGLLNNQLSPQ

B1: AB0023: mouse anti-human LOXL2 monoclonal antibody; heavy chain variable region SEQ ID NO:1, light chain variable region SEQ ID NO:2 (antibody, listed as Mus musculus, V domains shown)
VH: MEWSRVFIFLLSVTAGVHSQVQLQQSGAELVRPGTSVKVSCKASGYAFTYYLIEWVKQRPGQGLEWIGVINPGSGGTNYNEKFKGKATLTADKSSSTAYMQLSSLTSDDSAVYFCARNWMNFDYWGQGTTLTVSS
VL: MRCLAEFLGLLVLWIPGAIGDIVMTQAAPSVSVTPGESVSISCRSSKSLLHSNGNTYLYWFLQRPGQSPQFLIYRMSNLASGVPDRFSGSGSGTAFTLRISRVEAEDVGVYYCMQHLEYPYTFGGGTKLEIK
modifications: Heavy chain; Light chain
For B1, the “mode of inhibition of LOXL2” value [1] was “non-competitive allosteric inhibitors”, the “inhibition of LOXL2 enzymatic activity” value ([1]; in vitro) was “inhibits” and the “inhibition of vessel branching, vessel length and total number of vessels” value ([2]; 50 ug/ml) was “complete inhibition”. For the same molecule, the IC50 ([2]; read-out: IC50 for inhibition of number of vessels (FIG. 4 Panel H)) was 19.9 nM, the IC50 ([2]; read-out: IC50 for inhibition of vessel branching (mean number of branching points, FIG. 4 Panel G)) was 22.2 nM and the “inhibition of SMAD2 phosphorylation (TGFb signaling)” value ([3]; 10-60 minute time frame) was 10-20%. The “effect on AKT phosphorylation” value ([3]; PDGF-BB, 10-60 minute time periods) was “No significant effects”, the “remodeling of the actin cytoskeleton induced by LOXL2-containing conditioned media” value (MCF7 cells) was “abrogated” and the tolerability [4] was “well-tolerated”.

Reference: patent publication US20110076272A1, “THERAPEUTIC METHODS AND COMPOSITIONS” (priority 2009, published 2011)
